According to patent publication US9915665:

Tests used:
murine DLL4 (murine) [1] = molecular target: murine DLL4 (murine) (UniProt Q9JI71); assay: Biacore (SPR), muDLL4; reference is the parental DVD
murine DLL4 (murine) [2] = molecular target: murine DLL4 (murine) (UniProt Q9JI71); assay: Biacore (SPR), DVD-Ig and muDLL4
human DLL4 (human) [3] = molecular target: human DLL4 (human) (UniProt Q9NR61); assay: Biacore (SPR), huDLL4; reference is the parental DVD
human DLL4 (human) [4] = molecular target: human DLL4 (human) (UniProt Q9NR61); assay: Biacore (SPR), DVD-Ig and huDLL4

Sequence of UniProt Q9JI71 (Q9JI71 27-525 limits assumed): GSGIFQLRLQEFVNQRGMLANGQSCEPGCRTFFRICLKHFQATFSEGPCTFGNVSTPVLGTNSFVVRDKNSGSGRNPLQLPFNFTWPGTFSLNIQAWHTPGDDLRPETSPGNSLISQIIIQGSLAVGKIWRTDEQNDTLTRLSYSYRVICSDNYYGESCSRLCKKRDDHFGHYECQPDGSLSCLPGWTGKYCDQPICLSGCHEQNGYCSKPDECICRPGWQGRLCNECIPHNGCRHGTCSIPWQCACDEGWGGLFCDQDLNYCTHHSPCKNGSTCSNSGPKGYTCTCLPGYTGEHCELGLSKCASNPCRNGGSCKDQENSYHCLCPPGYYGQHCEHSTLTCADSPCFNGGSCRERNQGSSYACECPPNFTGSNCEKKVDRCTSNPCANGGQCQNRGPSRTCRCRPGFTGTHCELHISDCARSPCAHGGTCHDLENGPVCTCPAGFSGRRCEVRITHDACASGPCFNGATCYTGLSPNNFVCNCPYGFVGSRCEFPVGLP
Sequence of UniProt Q9NR61 (Q9NR61 27-524 limits assumed): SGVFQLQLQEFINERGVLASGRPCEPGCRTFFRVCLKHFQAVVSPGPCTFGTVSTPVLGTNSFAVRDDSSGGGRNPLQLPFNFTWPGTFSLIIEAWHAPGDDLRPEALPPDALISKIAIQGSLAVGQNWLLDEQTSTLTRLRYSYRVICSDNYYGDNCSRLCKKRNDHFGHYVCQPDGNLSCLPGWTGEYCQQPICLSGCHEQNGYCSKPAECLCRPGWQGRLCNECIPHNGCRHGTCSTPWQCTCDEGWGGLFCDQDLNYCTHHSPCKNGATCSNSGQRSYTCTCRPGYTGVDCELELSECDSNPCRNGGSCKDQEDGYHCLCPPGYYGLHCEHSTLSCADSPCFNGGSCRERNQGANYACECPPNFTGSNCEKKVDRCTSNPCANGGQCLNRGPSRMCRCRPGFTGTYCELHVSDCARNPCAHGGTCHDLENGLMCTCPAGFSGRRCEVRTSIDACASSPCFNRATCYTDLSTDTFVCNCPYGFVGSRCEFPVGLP

Row | Binder | KD ratio (parental DVD/AM DVD) (murine DLL4 (murine) [1]) [fold] | Kd (murine DLL4 (murine) [2]) [nM] | koff (murine DLL4 (murine) [2]) [s⁻¹] | kon (murine DLL4 (murine) [2]) [M⁻¹ s⁻¹] | KD ratio (parental DVD/AM DVD) (human DLL4 (human) [3]) [fold] | Kd (human DLL4 (human) [4]) [nM] | koff (human DLL4 (human) [4]) [s⁻¹] | kon (human DLL4 (human) [4]) [M⁻¹ s⁻¹]
1 | h1A11.1-B9-S2-SS-Anti-VEGF DVD-Ig (bispecific antibody, part only; not given: anti-VEGF domains, h1A11.1 VL, constant regions, part only) heavy, part: EVQLVESGGGLVQPGGSLRLSCAASGFTFSHFPMAWVRQAPGKGLEWVASISSSDSTTNYRDSVKGRFTISRDNAKNSLYLQMNSLRAEDTAVYYCARGYYNSPFAYWGQGTLVTVSSASTKGP light, part: TVAAP | 17.4 | 1.23 | 0.000205 | 167000 | 21.6 | 0.923 | 0.000106 | 115000
2 | h1A11.1-H3-S2-SS-Anti-VEGF DVD-Ig (bispecific antibody, part only; not given: anti-VEGF domains, h1A11.1 VL, constant regions, part only) heavy, part: EVQLVESGGGLVQPGGSLRLSCAASGFTFRNFPMAWVRQAPGKGLEWVASISSSDGTTNYRDSVKGRFTISRDNAKSSLYLQMNSLRAEDTAVYYCARGYYNSPFAYWGQGTLVTVSSASTKGP light, part: TVAAP | 14.3 | 1.49 | 0.000294 | 197000 | 19.1 | 1.04 | 0.000136 | 130000
3 | h1A11.1-G7-S2-SS-Anti-VEGF DVD-Ig (bispecific antibody, part only; not given: anti-VEGF domains, h1A11.1 VL, constant regions, part only) heavy, part: EVQLVESGGGLVQPGGSLRLSCAASGFTFNHFPMAWVRQAPGKGLEWVATISSSDWTPYYRDSVKGRFTISRDNAKNSLYLQMNSLRAEDTAVYYCARGYYNSPFAYWGQGTLVTVSSASTKGP light, part: TVAAP | 13.6 | 1.57 | 0.000266 | 169000 | 15.2 | 1.32 | 0.000155 | 117000

Binders with a lower Kd (murine DLL4 (murine) [2]), results first:

Row | KD ratio (parental DVD/AM DVD) (murine DLL4 (murine) [1]) [fold] | Kd (murine DLL4 (murine) [2]) [nM] | koff (murine DLL4 (murine) [2]) [s⁻¹] | kon (murine DLL4 (murine) [2]) [M⁻¹ s⁻¹] | KD ratio (parental DVD/AM DVD) (human DLL4 (human) [3]) [fold] | Kd (human DLL4 (human) [4]) [nM] | koff (human DLL4 (human) [4]) [s⁻¹] | kon (human DLL4 (human) [4]) [M⁻¹ s⁻¹] | Binder
4 | 53.8 | 0.774 | 0.000133 | 171000 |  |  |  |  | h1A11.1-A10-S3-SS-Anti-VEGF DVD-Ig (bispecific antibody, part only; not given: anti-VEGF domains, h1A11.1 VL, constant regions, part only) heavy, part: EVQLVESGGGLVQPGGSLRLSCAASGFTFRHFPMAWVRQAPGKGLEWVASISSSDGTSNYRDSVKGRFTISRDNAKSSLYLQMNSLRAEDTAVYYCARGYYNSPFAYWGQGTLVTVSSASTKGP light, part: TVAAP
5 | 59.2 | 0.361 | 0.000483 | 1.34e+06 | 35.9 | 0.556 | 0.000319 | 570000 | h1A11.1-F7-S2-SS-Anti-VEGF DVD-Ig (bispecific antibody, part only; not given: anti-VEGF domains, h1A11.1 VL, constant regions, part only) heavy, part: EVQLVESGGGLVQPGGSLRLSCAASGFTFRHFPMTWVRQAPGKGLEWVASISSSDGTINYRDSVKGRFTISRDNAKNSLYLQMNSLRAEDTAVYYCARGYYNSPFAYWGQGTLVTVSSASTKGP light, part: TVAAP
6 | 92.2 | 0.451 | 8.12e-05 | 180000 |  |  |  |  | h1A11.1-A04-S3-SS-Anti-VEGF DVD-Ig (bispecific antibody, part only; not given: anti-VEGF domains, h1A11.1 VL, constant regions, part only) heavy, part: EVQLVESGGGLVQPGGSLRLSCAASGFTFRHFPMAWVRQAPGKGLEWVATISSSDGATYYRDSVKGRFTISRDNAKSSLYLQMNSLRAEDTAVYYCARGYYNSPFAYWGQGTLVTVSSASTKGP light, part: TVAAP
